# Laboratory results from PMC9411612, “Single residue modulators of amyloid formation in the N-terminal P1-region of α-synuclein” (Nature Communications, 2022).
# What was measured:
# [1] = biological target: T1, wild-type alpha-synuclein (WT αSyn) (UniProt P37840 1-140); assay: NMR paramagnetic relaxation enhancement (PRE); 100 µM 15N-labelled protein with 100 µM 14N MTSL-labelled peptide; diamagnetic spectra after 1 mM ascorbic acid; 20 mM Tris-HCl, pH 7.5, 200 mM NaCl, 15 °C; conditions: both partners purified
# [2] = biological target: T2, ΔP1 αSyn (alpha-synuclein with residues 36-42 deleted) (UniProt P37840 1-140, deletion of the seven-residue P1 sequence 36GVLYVGS42 (ΔP1)); assay: as above; conditions: both partners purified
# [3] = biological target: T2, ΔP1 αSyn (alpha-synuclein with residues …); assay: cell-based or functional assay
# [4] = biological target: T1, wild-type alpha-synuclein (WT αSyn); assay: native MS; native nESI-MS; 20 µM protein, αSyn:P1-peptide 1:10, 20 mM ammonium acetate pH 7.5; conditions: both partners purified
# [5] = biological target: T2, ΔP1 αSyn (alpha-synuclein with residues …); assay: as above; conditions: both partners purified
binding result [1],binding result [2],"t50 of amyloid formation (ThT fluorescence), 100 µM ΔP1 with P1-peptide in 10-fold molar excess, pH 7.5 (aggregation begins within 110 h at equimolar ratio) [3] [h]",stoichiometry N [4],stoichiometry N [5],Binder
binds,binds,–,–,–,"CKTKEGVLYVGSKTKE (N-terminal acetylation; MTSL on the thiol group of the introduced N-terminal cysteine; C-terminal amidation, cysteine introduced at the N-terminus for MTSL labelling; observed mass 1995.07 Da after labelling; also called MTSL-labelled peptide-P1; 14N P1-peptide N-terminally labelled with MTSL; source: synthetic peptide, bought: Severn Biotech Ltd; labelled with MTSL, reverse phase HPLC) [MTSL-labelled Cys-P1-peptide (Ac-C-KTKE-GVLYVGS-KTKE-NH2)]"
–,–,14.4,1,1,"Ac-KTKEGVLYVGSKTKE-NH2 (also called peptide-P1; peptide P1; source: synthetic peptide, bought: Severn Biotech Ltd) [P1-peptide (Ac-KTKE-GVLYVGS-KTKE-NH2)]"
